This assay has as its target T1, recombinant human 4R0N tau (human, UniProt P10636 2-758).
T1 construct: also called P10636-6
Briefly: SPR, Biacore T200, antibody captured on anti-human Fc, tau as analyte, 1:1 fit. The method, then: Target binding analysis was performed using a Biacore T200 to compare the binding affinity of humanized 3D6 variants to recombinant human 4R0N tau. Anti-Human Fc antibody was immobilized on sensor chip CM3 via amine coupling, and humanized 3D6 variants were captured to equivalent levels. […] Data was blank subtracted to both an irrelevant sensor not containing antibody and 0 nM analyte concentration. Analysis was performed using a global 1:1 fit with Biacore Evaluation software.
In general terms: SPR reads the build-up and loss of mass on a sensor chip optically.

What is called Kd is the constant that tells how readily two partners part at equilibrium. By koff is commonly meant the rate constant with which the complex falls apart. The kon is the second-order rate constant of association.

T1 sequence (P10636 other isoform, or with tags, fused parts or gaps limits assumed): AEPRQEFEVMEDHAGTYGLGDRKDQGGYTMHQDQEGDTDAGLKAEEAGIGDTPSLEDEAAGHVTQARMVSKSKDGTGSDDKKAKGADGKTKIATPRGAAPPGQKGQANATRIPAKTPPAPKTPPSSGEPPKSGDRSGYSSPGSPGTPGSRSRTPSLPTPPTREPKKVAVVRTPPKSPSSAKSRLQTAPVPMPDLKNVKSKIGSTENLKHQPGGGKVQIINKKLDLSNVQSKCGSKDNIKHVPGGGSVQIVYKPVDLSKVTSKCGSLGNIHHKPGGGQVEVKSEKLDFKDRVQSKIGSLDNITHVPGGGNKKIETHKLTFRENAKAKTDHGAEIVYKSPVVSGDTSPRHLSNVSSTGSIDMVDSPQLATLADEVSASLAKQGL

B1: h3D6VHvb8/L2-DIM4 (antibody, V domains shown)
VH: EVQLVQSGAEVVKPGATVKISCKASGFNIKDYYLHWVRQRPGQGLEWIGWIDPENGDTVYEPKFQGRATITADTSTDTAYLQLGSLTSEDTAVYFCSTLDFWGQGTLVTVSS
VL: DVVMTQSPLSLPVTLGQPASISCKSSQSLLDSDGKTYLNWLQQRPGQSPRRLIYLVGKRDSGVPDRFSGSGSGTDFTLKISRVEAEDVGVYYCWQGTHFPYTFGGGTKLEIK
notes: Humanized antibody with human Fc
Turning to B1, the Kd worked out at 226 pM, the koff was found to be 0.00102 s⁻¹ and the kon turned out to be 4.51e+06 M⁻¹ s⁻¹.

B2: hu3D6VHv1bA11/L2-DIM19 (antibody, V domains shown)
VH: EVQLVQSGAEVVKPGATVKISCKASGFNIKDYYLHWVRQRPGQGLEWIGWIDPENGDTVYDPKFQGRATITADTSTDTAYLQLGSLTSEDTAVYFCSTLDFWGQGTLVTVSS
VL: DVVMTQSPLSLPVTLGQPASISCKSSQSLLDSDGKTYLNWLQQRPGQSPRRLIYEVSKGDSGVPDRFSGSGSGTDFTLKISRVEAEDVGVYYCWQGTHFPYTFGGGTKLEIK
notes: as for B1
Consider B2, for which the Kd turned out to be 1790 pM and the koff amounted to 5.88 s⁻¹.

B3: h3D6VHvb8/L2-DIM7 (antibody, V domains shown)
VH: EVQLVQSGAEVVKPGATVKISCKASGFNIKDYYLHWVRQRPGQGLEWIGWIDPENGDTVYEPKFQGRATITADTSTDTAYLQLGSLTSEDTAVYFCSTLDFWGQGTLVTVSS
VL: DVVMTQSPLSLPVTLGQPASISCKSSQSLLDSDGKTYLNWLLQRPGQSPRRLIYLVSKGDSGVPDRFSGSGSGTDFTLKISRVEAEDVGVYYCWQGTHFPYTFGGGTKLEIK
notes: Humanized antibody with human Fc; also called hu3D6VHv1bA11 D60E / hu3D6VLv2 L54G
As to B3, the dissociation constant Kd is 275 pM, the koff came to 0.00119 s⁻¹ and the kon was 4.31e+06 M⁻¹ s⁻¹.

B4: hu3D6VHv1bA11/L2-DIM9 (antibody, V domains shown)
VH: EVQLVQSGAEVVKPGATVKISCKASGFNIKDYYLHWVRQRPGQGLEWIGWIDPENGDTVYDPKFQGRATITADTSTDTAYLQLGSLTSEDTAVYFCSTLDFWGQGTLVTVSS
VL: DVVMTQSPLSLPVTLGQPASISCKSSQSLLDSDGKTYLNWLLQRPGQSPRRLIYLVGKLDSGVPDRFSGSGSGTDFTLKISRVEAEDVGVYYCWQGTHFPYTFGGGTKLEIK
notes: Humanized antibody with human Fc; also called hu3D6VHv1bA11 / hu3D6VLv2 S52G
As for B4, the Kd came out at 160 pM, the koff was 0.00074 s⁻¹ and the kon came to 4.63e+06 M⁻¹ s⁻¹.

B5: hu3D6VHv1bA11/L2-DIM22 (antibody, V domains shown)
VH: EVQLVQSGAEVVKPGATVKISCKASGFNIKDYYLHWVRQRPGQGLEWIGWIDPENGDTVYDPKFQGRATITADTSTDTAYLQLGSLTSEDTAVYFCSTLDFWGQGTLVTVSS
VL: DVVMTQSPLSLPVTLGQPASISCKSSQSLLDSDGKTYLNWLLQRPGQSPRRLIYGVSKLDSGVPDRFSGSGSGTDFTLKISRVEAEDVGVYYCWQGTHFPYTFGGGTKLEIK
notes: Humanized antibody with human Fc; also called hu3D6VHv1bA11 / hu3D6VLv2 L50G
Regarding B5, the Kd worked out at 708 pM, the koff was determined as 0.00251 s⁻¹ and the kon is 3.54e+06 M⁻¹ s⁻¹.

B6: hu3D6VHv1bA11/L2-DIM17 (antibody, V domains shown)
VH: EVQLVQSGAEVVKPGATVKISCKASGFNIKDYYLHWVRQRPGQGLEWIGWIDPENGDTVYDPKFQGRATITADTSTDTAYLQLGSLTSEDTAVYFCSTLDFWGQGTLVTVSS
VL: DVVMTQSPLSLPVTLGQPASISCKSSQSLLDSDGKTYLNWLQQRPGQSPRRLIYDVSKGDSGVPDRFSGSGSGTDFTLKISRVEAEDVGVYYCWQGTHFPYTFGGGTKLEIK
notes: as for B1
For B6, the Kd was found to be 1030 pM.

B7: hu3D6VHv1bA11/L2-DIM18 (antibody, V domains shown)
VH: EVQLVQSGAEVVKPGATVKISCKASGFNIKDYYLHWVRQRPGQGLEWIGWIDPENGDTVYDPKFQGRATITADTSTDTAYLQLGSLTSEDTAVYFCSTLDFWGQGTLVTVSS
VL: DVVMTQSPLSLPVTLGQPASISCKSSQSLLDSDGKTYLNWLQQRPGQSPRRLIYDVSKRDSGVPDRFSGSGSGTDFTLKISRVEAEDVGVYYCWQGTHFPYTFGGGTKLEIK
notes: as for B1
In the case of B7, the Kd worked out at 2510 pM, the koff amounted to 0.00378 s⁻¹ and the kon is 1.51e+06 M⁻¹ s⁻¹.

B8: hu3D6VHv1bA11/L2-DIM7 (antibody, V domains shown)
VH: EVQLVQSGAEVVKPGATVKISCKASGFNIKDYYLHWVRQRPGQGLEWIGWIDPENGDTVYDPKFQGRATITADTSTDTAYLQLGSLTSEDTAVYFCSTLDFWGQGTLVTVSS
VL: DVVMTQSPLSLPVTLGQPASISCKSSQSLLDSDGKTYLNWLLQRPGQSPRRLIYLVSKGDSGVPDRFSGSGSGTDFTLKISRVEAEDVGVYYCWQGTHFPYTFGGGTKLEIK
notes: Humanized antibody with human Fc; also called hu3D6VHv1bA11 / hu3D6VLv2 L54G
On to B8, for which the Kd came to 281 pM, the koff was found to be 0.000971 s⁻¹ and the kon worked out at 3.46e+06 M⁻¹ s⁻¹.

B9: hu3D6VHv1bA11/L2-DIM3 (antibody, V domains shown)
VH: EVQLVQSGAEVVKPGATVKISCKASGFNIKDYYLHWVRQRPGQGLEWIGWIDPENGDTVYDPKFQGRATITADTSTDTAYLQLGSLTSEDTAVYFCSTLDFWGQGTLVTVSS
VL: DVVMTQSPLSLPVTLGQPASISCKSSQSLLDSDGKTYLNWLQQRPGQSPRRLIYLVGKGDSGVPDRFSGSGSGTDFTLKISRVEAEDVGVYYCWQGTHFPYTFGGGTKLEIK
notes: as for B1
Turning to B9, the Kd is 199 pM, the koff was found to be 0.000781 s⁻¹ and the kon amounted to 3.93e+06 M⁻¹ s⁻¹.

B10: hu3D6VHv1bA11/L2-DIM20 (antibody, V domains shown)
VH: EVQLVQSGAEVVKPGATVKISCKASGFNIKDYYLHWVRQRPGQGLEWIGWIDPENGDTVYDPKFQGRATITADTSTDTAYLQLGSLTSEDTAVYFCSTLDFWGQGTLVTVSS
VL: DVVMTQSPLSLPVTLGQPASISCKSSQSLLDSDGKTYLNWLQQRPGQSPRRLIYEVSKRDSGVPDRFSGSGSGTDFTLKISRVEAEDVGVYYCWQGTHFPYTFGGGTKLEIK
notes: as for B1
For B10, the Kd came out at 36000 pM, the koff worked out at 0.00935 s⁻¹ and the kon is 260000 M⁻¹ s⁻¹.

B11: h3D6VHvb8/L2-DIM6 (antibody, V domains shown)
VH: EVQLVQSGAEVVKPGATVKISCKASGFNIKDYYLHWVRQRPGQGLEWIGWIDPENGDTVYEPKFQGRATITADTSTDTAYLQLGSLTSEDTAVYFCSTLDFWGQGTLVTVSS
VL: DVVMTQSPLSLPVTLGQPASISCKSSQSLLDSDGKTYLNWLQQRPGQSPRRLIYLVGKDDSGVPDRFSGSGSGTDFTLKISRVEAEDVGVYYCWQGTHFPYTFGGGTKLEIK
notes: as for B1
For the molecule B11, the Kd stood at 1500 pM and the koff is 5.67 s⁻¹.

B12: hu3D6VHv1bA11/L2-DIM14 (antibody, V domains shown)
VH: EVQLVQSGAEVVKPGATVKISCKASGFNIKDYYLHWVRQRPGQGLEWIGWIDPENGDTVYDPKFQGRATITADTSTDTAYLQLGSLTSEDTAVYFCSTLDFWGQGTLVTVSS
VL: DVVMTQSPLSLPVTLGQPASISCKSSQSLLDSDGKTYLNWLQQRPGQSPRRLIYDVSKLDSGVPDRFSGSGSGTDFTLKISRVEAEDVGVYYCWQGTHFPYTFGGGTKLEIK
notes: as for B1
Take B12: the Kd amounted to 1530 pM.

B13: h3D6VHvb8/L2-DIM8 (antibody, V domains shown)
VH: EVQLVQSGAEVVKPGATVKISCKASGFNIKDYYLHWVRQRPGQGLEWIGWIDPENGDTVYEPKFQGRATITADTSTDTAYLQLGSLTSEDTAVYFCSTLDFWGQGTLVTVSS
VL: DVVMTQSPLSLPVTLGQPASISCKSSQSLLDSDGKTYLNWLQQRPGQSPRRLIYLVSKLDSGVPDRFSGSGSGTDFTLKISRVEAEDVGVYYCWQGTHFPYTFGGGTKLEIK
notes: Humanized antibody with human Fc; also called hu3D6VHv1bA11 D60E / hu3D6VLv2 L37Q
Turning to B13, the Kd amounted to 427 pM, the koff was 0.0014 s⁻¹ and the kon came to 3.28e+06 M⁻¹ s⁻¹.

B14: hu3D6VHv1bA11/L2-DIM21 (antibody, V domains shown)
VH: EVQLVQSGAEVVKPGATVKISCKASGFNIKDYYLHWVRQRPGQGLEWIGWIDPENGDTVYDPKFQGRATITADTSTDTAYLQLGSLTSEDTAVYFCSTLDFWGQGTLVTVSS
VL: DVVMTQSPLSLPVTLGQPASISCKSSQSLLDSDGKTYLNWLLQRPGQSPRRLIYLVSKDDSGVPDRFSGSGSGTDFTLKISRVEAEDVGVYYCWQGTHFPYTFGGGTKLEIK
notes: Humanized antibody with human Fc; also called hu3D6VHv1bA11 / hu3D6VLv2 L54D
For B14, the Kd stood at 696 pM, the koff worked out at 0.00149 s⁻¹ and the kon was 2.15e+06 M⁻¹ s⁻¹.

B15: hu3D6VHv1bA11/L2-DIM5 (antibody, V domains shown)
VH: EVQLVQSGAEVVKPGATVKISCKASGFNIKDYYLHWVRQRPGQGLEWIGWIDPENGDTVYDPKFQGRATITADTSTDTAYLQLGSLTSEDTAVYFCSTLDFWGQGTLVTVSS
VL: DVVMTQSPLSLPVTLGQPASISCKSSQSLLDSDGKTYLNWLQQRPGQSPRRLIYLVGKTDSGVPDRFSGSGSGTDFTLKISRVEAEDVGVYYCWQGTHFPYTFGGGTKLEIK
notes: as for B1
Turning to B15, the Kd was 183 pM, the koff came out at 0.000735 s⁻¹ and the kon amounted to 4.02e+06 M⁻¹ s⁻¹.

B16: hu3D6VHv1bA11/L2-DIM13 (antibody, V domains shown)
VH: EVQLVQSGAEVVKPGATVKISCKASGFNIKDYYLHWVRQRPGQGLEWIGWIDPENGDTVYDPKFQGRATITADTSTDTAYLQLGSLTSEDTAVYFCSTLDFWGQGTLVTVSS
VL: DVVMTQSPLSLPVTLGQPASISCKSSQSLLDSDGKTYLNWLQQRPGQSPRRLIYGVSKLDSGVPDRFSGSGSGTDFTLKISRVEAEDVGVYYCWQGTHFPYTFGGGTKLEIK
notes: as for B1
For B16, the Kd stood at 904 pM, the koff worked out at 0.00285 s⁻¹ and the kon was determined as 3.15e+06 M⁻¹ s⁻¹.

B17: hu3D6VHv1bA11/L2-DIM6 (antibody, V domains shown)
VH: EVQLVQSGAEVVKPGATVKISCKASGFNIKDYYLHWVRQRPGQGLEWIGWIDPENGDTVYDPKFQGRATITADTSTDTAYLQLGSLTSEDTAVYFCSTLDFWGQGTLVTVSS
VL: DVVMTQSPLSLPVTLGQPASISCKSSQSLLDSDGKTYLNWLQQRPGQSPRRLIYLVGKDDSGVPDRFSGSGSGTDFTLKISRVEAEDVGVYYCWQGTHFPYTFGGGTKLEIK
notes: as for B1
With B17, the Kd was found to be 1490 pM, the koff was found to be 0.00461 s⁻¹ and the kon stood at 3.08e+06 M⁻¹ s⁻¹.

B18: hu3D6VHv1bA11/L2-DIM12 (antibody, V domains shown)
VH: EVQLVQSGAEVVKPGATVKISCKASGFNIKDYYLHWVRQRPGQGLEWIGWIDPENGDTVYDPKFQGRATITADTSTDTAYLQLGSLTSEDTAVYFCSTLDFWGQGTLVTVSS
VL: DVVMTQSPLSLPVTLGQPASISCKSSQSLLDSDGKTYLNWLQQRPGQSPRRLIYLVSKDDSGVPDRFSGSGSGTDFTLKISRVEAEDVGVYYCWQGTHFPYTFGGGTKLEIK
notes: as for B1
For the molecule B18, the Kd is 485 pM, the koff was 0.00133 s⁻¹ and the kon worked out at 2.74e+06 M⁻¹ s⁻¹.

The values are drawn from patent publication US20200369755A1 (PROTHENA BIOSCIENCES, published 2020).
